Consider two molecules from patent US20090053180A1, “Tandem cardiac pacemaker system” (priority 2005, published 2009).

For series [1], the system named is newborn rat ventricular myocytes. The experiment in a line: Whole-cell voltage clamp of expressed HCN current in newborn rat ventricular myocytes. It is filed as cell-based. The following applies: for V1/2 / s: fit of average data. As for the experimental part:
Adult rats were anesthetized with ketamine-xylazine before cardiectomy, and neonatal rats decapitated. Newborn rat ventricular myocyte cultures were prepared as previously described (Protas and Robinson, 1999). Briefly, 1-2-day-old Wistar rats were euthanized, hearts were quickly removed and ventricles were dissociated using a standard trypsinization procedure. Myocytes were harvested, preplated to reduce fibroblast proliferation, cultured initially in serum-containing medium (except when being transfected with plasmids as described below), and then incubated in serum free medium (SFM) at 37° C., 5% CO2 after 24 h. Action potential studies were conducted on 4-day-old monolayer cultures plated directly onto fibronectin-coated 9×22 mm glass coverslips. For voltage clamp experiments, 4-6 day old monolayer cultures were resuspended by brief (2-3 min) exposure to 0.25% trypsin, then replated onto fibronectin-coated coverslips and studied within 2-8 h.
Adenoviral infection of the newborn ventricular myocytes was performed on cell monolayer cultures 4 days after initial plating. Cells were exposed to a virus-containing mix (m.o.i. 20, in 250 μl of culture medium) for 2 h, rinsed twice and incubated in SFM at 37° C., 5% CO2 for 24-48 hours prior to the cells being resuspended as described above for electrophysiological study.
The whole-cell patch clamp technique was employed to record mHCN2 current from cultured myocytes. Experiments were carried out on cells superfused at 35° C. The external solution contained (mM): NaCl, 140; NaOH, 2.3; MgCl2, 1; KCl, 10; CaCl2, 1; HEPES, 5; glucose, 10; pH 7.4. MnCl2 (2 mM) and BaCl2 (4 mM) were added to block other currents. The pipette solution contained (mM): aspartic acid, 130; KOH, 146; NaCl, 10; CaCl2, 2; EGTA-KOH, 5; Mg-ATP, 2; HEPES-KOH, 10; pH 7.2.
To measure the HCN activation curve, a standard two-step protocol was employed. Hyperpolarizing steps from −25 to −135 mV for mHCN2 and from −5 or −15 to −135 mV for mE324A were applied from a holding potential of −10 mV, followed by a tail current step (to −125 or −135 mV). The duration of test steps was longer at less hyperpolarized potential for mHCN2 channels, to more closely approach steady-state activation at all voltages. The normalized plot of tail current versus test voltage was fit with a Boltzmann function and then the voltage of half maximum activation (V1/2) and slope factor(s) were defined from the fitting. Activation kinetics were determined from the same traces, while deactivation kinetics were determined from traces recorded at each test potential after achieving full activation by a prepulse to −135 mV. Time constants were then obtained by fitting the early time course of activation or deactivation current traces with a monoexponential function; the initial delay and any late slow activation or deactivation phase were ignored (Qu et al., 2001; Altomare et al., 2001). Current densities are expressed as the value of the time-dependent component of current amplitude, measured at the end of the test potential and normalized to cell membrane capacitance. Records were not corrected for liquid junction potential, which was previously determined to be 9.8 mV under these conditions (Qu et al., 2001).

Series [2] concerns Xenopus oocytes. In words: Two-microelectrode voltage clamp of expressed HCN current in Xenopus oocytes. It is filed as cell-based, Xenopus laevis.
The subject of series [3] is dogs with complete AV block. In words: Tandem biological and electronic pacemakers in dogs with complete AV block (injection into left bundle branch). Type of series: in vivo, dog. As for the experimental part:
Adult mongrel dogs weighing 22-25 kg were anesthetized with propofol 6 mg/kg IV and inhalational isoflurane (1.5%-2.5%). Using a steerable catheter, saline (n=5), AdmHCN2 (n=6) or AdmE324A (n=4) were injected into the left bundle branch (LBB) as described previously (Plotnikov et al., 2004). In 2 additional dogs AdmE324A was injected into the LV septal myocardium as an internal control. Complete AV block was induced via radiofrequency ablation and each site of injection was paced via catheter electrode to distinguish electrocardiographically the origin of the idioventricular rhythm during the follow up period.
An electronic pacemaker (Discovery II, Flextend lead; Guidant, Indianapolis, Ind.) was implanted and set at VVI 45 bpm. ECG, 24 hour Holter monitoring, pacemaker log record check, and overdrive pacing at 80 bpm were performed daily for 14 days. To evaluate beta-adrenergic responsiveness, on day 14, epinephrine (1.0, 1.5 and 2.0 μg/kg/min for up to 10 min each) was infused to an endpoint of a 50% increase in idioventricular rate or ventricular arrhythmia (single ventricular premature beats having a morphology other than that of the dominant idioventricular rhythm or ventricular tachycardia), whichever occurred first. If none of the above responses was observed within 10 min after onset of the maximal dose of 2 μg/kg/min, the infusion was terminated.
Data are presented as means±SEM. […] One-way ANOVA was used to evaluate the effect of an implanted construct on electrophysiological parameters. Subsequent analysis was performed using Bonferroni's test where equal variances were assumed and the Games-Howell test where variances were unequal. A two-way contingency table analysis was conducted to evaluate whether epinephrine had different effects across three groups. Data were analyzed using SPSS for Windows software (SPSS, Inc.). P<0.05 was considered to be significant.
Complete AV block was induced via radiofrequency ablation, and electronic pacemakers were implanted into the right ventricular apical endocardium and set a VV1 45 bpm. ECG and 24-h monitoring were performed daily for 14 days. Beta-adrenergic responsiveness was also evaluated as described above.
Escape time was evaluated daily by performing three 30-s periods of ventricular overdrive pacing at 80 bpm followed by an abrupt cessation of pacing. The average time between the final electronically paced beat and the first intrinsic beat was then determined. […] There was a different result with regard to basal heart rates throughout the 14-day period, however.

Series [4] has as its system cell-free patches from Xenopus oocytes. The following applies: cited from earlier work.
Where [5] appears, read: 10 μM cAMP in the pipette solution.

Entries after “also recorded” stand apart in the source; their conditions may differ.

B1: mE324A: mHCN2 channel with E324A point mutation, expressed from cRNA or adenoviral construct AdmE324A (protein, UniProt O88703 1-863, looked up, variant E324A)
Potassium/sodium …: MDARGGGGRPGDSPGTTPAPGPPPPPPPPAPPQPQPPPAPPPNPTTPSHPESADEPGPRARLCSRDSACTPGAAKGGANGECGRGEPQCSPEGPARGPKVSFSCRGAASGPSAAEEAGSEEAGPAGEPRGSQASFLQRQFGALLQPGVNKFSLRMFGSQKAVEREQERVKSAGAWIIHPYSDFRFYWDFTMLLFMVGNLIIIPVGITFFKDETTAPWIVFNVVSDTFFLMDLVLNFRTGIVIEDNTEIILDPEKIKKKYLRTWFVVDFVSSIPVDYIFLIVEKGIDSEVYKTARALRIVRFTKILSLLRLLRLSRLIRYIHQWAEIFHMTYDLASAVMRICNLISMMLLLCHWDGCLQFLVPMLQDFPSDCWVSINNMVNHSWSELYSFALFKAMSHMLCIGYGRQAPESMTDIWLTMLSMIVGATCYAMFIGHATALIQSLDSSRRQYQEKYKQVEQYMSFHKLPADFRQKIHDYYEHRYQGKMFDEDSILGELNGPLREEIVNFNCRKLVASMPLFANADPNFVTAMLTKLKFEVFQPGDYIIREGTIGKKMYFIQHGVVSVLTKGNKEMKLSDGSYFGEICLLTRGRRTASVRADTYCRLYSLSVDNFNEVLEEYPMMRRAFETVAIDRLDRIGKKNSILLHKVQHDLSSGVFNNQENAIIQEIVKYDREMVQQAELGQRVGLFPPPPPPQVTSAIATLQQAVAMSFCPQVARPLVGPLALGSPRLVRRAPPGPLPPAASPGPPAASPPAAPSSPRAPRTSPYGVPGSPATRVGPALPARRLSRASRPLSASQPSLPHGVPAPSPAASARPASSSTPRLGPAPTARTAAPSPDRRDSASPGAASGLDPLDSARSRLSSNL
Take B1: in series [1], the “activation kinetics compared with mHCN2” value is recorded as “faster” and the “activation threshold compared with mHCN2” value was “less negative”. In series [1] (setting [5]), the “shift of V1/2 by cAMP” value turned out to be 5.6 mV, the V1/2 is listed as −40.7 mV and the s is reported as 8.7 mV. Further, in series [1] (6 matched cell cultures), the “percentage of myocytes expressing current” value is 36.6%. Besides, the “current density, times smaller than that of mHCN2” value in series [1] (at −135 mV) is on record as “about 2.5 times”. In series [1] (absence of cAMP), this molecule yielded a V1/2 of −46.3 mV and a s of 9.1 mV. Further, the slope factor s in series [1] (mean of individual Boltzmann fits) is on record as 9.6±0.4 mV. Besides, in series [1] (mean of individual Boltzmann fits, adenoviral infection), the “V1/2 (voltage of half maximum activation)” value is given as −46.9±1.2 mV. Moreover, the current density in series [1] (measured at −135 mV) is reported as 21.0±3.5 pA/pF. The “effect of Cs+ on inward current” value in series [2] (5 mM Cs+) is on record as “blocked; also recorded: large inhibition”. Also, the reversal potential in series [2] (fully activated current/voltage relation) is roughly −40 mV. The “beats triggered by the electronic pacemaker, of all beats” value in series [3] (14 days, electronic pacemaker set at VVI 45 bpm) stood at 36±7%. Moreover, the “arrhythmias during epinephrine infusion” value in series [3] (day 14) is reported as “no arrhythmias were seen”. Besides, the “mean basal heart rate compared with saline group” value in series [3] (days 1-7 and 8-14) is on record as “significantly faster”. Also, the “animals that achieved a 50% increase in rate at the lowest epinephrine dose” value in series [3] (epinephrine 1 μg/kg/min, day 14) turned out to be 100%. Besides, the “increase in heart rate” value in series [3] (lowest dose of epinephrine) is on record as greater than 50%. Further, the “control rate prior to epinephrine” value in series [3] (representative animal, day 14) was determined as 52 bpm. The molecule further showed a rate with epinephrine in series [3] (representative animal, epinephrine 1 μg/kg/min) of 81 bpm.

B2: HCN1: HCN1 isoform of hyperpolarization-activated, cyclic nucleotide-gated ion channel (protein, UniProt O60741 1-890, looked up)
Potassium/sodium …: MEGGGKPNSSSNSRDDGNSVFPAKASATGAGPAAAEKRLGTPPGGGGAGAKEHGNSVCFKVDGGGGGGGGGGGGEEPAGGFEDAEGPRRQYGFMQRQFTSMLQPGVNKFSLRMFGSQKAVEKEQERVKTAGFWIIHPYSDFRFYWDLIMLIMMVGNLVIIPVGITFFTEQTTTPWIIFNVASDTVFLLDLIMNFRTGTVNEDSSEIILDPKVIKMNYLKSWFVVDFISSIPVDYIFLIVEKGMDSEVYKTARALRIVRFTKILSLLRLLRLSRLIRYIHQWEEIFHMTYDLASAVVRIFNLIGMMLLLCHWDGCLQFLVPLLQDFPPDCWVSLNEMVNDSWGKQYSYALFKAMSHMLCIGYGAQAPVSMSDLWITMLSMIVGATCYAMFVGHATALIQSLDSSRRQYQEKYKQVEQYMSFHKLPADMRQKIHDYYEHRYQGKIFDEENILNELNDPLREEIVNFNCRKLVATMPLFANADPNFVTAMLSKLRFEVFQPGDYIIREGAVGKKMYFIQHGVAGVITKSSKEMKLTDGSYFGEICLLTKGRRTASVRADTYCRLYSLSVDNFNEVLEEYPMMRRAFETVAIDRLDRIGKKNSILLQKFQKDLNTGVFNNQENEILKQIVKHDREMVQAIAPINYPQMTTLNSTSSTTTPTSRMRTQSPPVYTATSLSHSNLHSPSPSTQTPQPSAILSPCSYTTAVCSPPVQSPLAARTFHYASPTASQLSLMQQQPQQQVQQSQPPQTQPQQPSPQPQTPGSSTPKNEVHKSTQALHNTNLTREVRPLSASQPSLPHEVSTLISRPHPTVGESLASIPQPVTAVPGTGLQAGGRSTVPQRVTLFRQMSSGAIPPNRGVPPAPPPPAAALPRESSSVLNTDPDAEKPRFASNL
With B2, in series [4], the “shift of activation curve to more positive potentials by cAMP” value is listed as 4 mV.
